Changes are numbered by the printed parent chain.
Columns and labels:
HMGB1 domain A wild type = target: T1, HMGB1 domain A wild type (UniProt P09429 9-79); experiment: EMSA
T1 sequence: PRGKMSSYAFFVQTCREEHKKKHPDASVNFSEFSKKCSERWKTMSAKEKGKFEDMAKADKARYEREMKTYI

HMGB1 domain A C22A/C44A = target: T2, HMGB1 domain A C22A/C44A (UniProt P09429 9-79, C23A;C45A); experiment: hydroxyl radical footprinting
T2 sequence: T1 sequence with C15A, C37A

HMGB1 domain A C22A = target: T3, HMGB1 domain A C22A (UniProt P09429 9-79, C23A); experiment: EMSA
T3 sequence: T1 sequence with C15A

HMGB1 domain A C44A = target: T4, HMGB1 domain A C44A (UniProt P09429 9-79, C45A); experiment: EMSA
T4 sequence: T1 sequence with C37A

HMGB1 domain A C44S = target: T5, HMGB1 domain A C44S (UniProt P09429 9-79, C45S); experiment: EMSA
T5 sequence: T1 sequence with C37S

HMGB1 domain A C22S/C44S = target: T6, HMGB1 domain A C22S/C44S (UniProt P09429 9-79, C23S;C45S); experiment: EMSA
T6 sequence: T1 sequence with C15S, C37S

B1: 25-bp cisplatin-modified TGGA probe (dsDNA)
DNA 1: CCTCTCCTCTCTGGATCTTCTCTCC
DNA 2: GGAGAGAAGATCCAGAGAGGAGAGG
modifications: cisplatin 1,2-d(GpG) intrastrand cross-link at N7 of G13 and G14 of strand 1
- Kd (HMGB1 domain A wild type): 0.7 ± 0.1 nM
- binding result (HMGB1 domain A C22A/C44A): binds
- Kd (HMGB1 domain A C22A): 1.12 ± 0.14 nM
- Kd (HMGB1 domain A C44A): 2.41 ± 0.31 nM
- Kd (HMGB1 domain A C44S): 1.6 ± 0.07 nM
- Kd (HMGB1 domain A C22S/C44S): 1.65 ± 0.37 nM

— PMC3068233
